# Measurements from patent US20060204957A1, “Mta1s, a steriod hormone receptor corepressor” (priority 2002, published 2006).
# Experiments:
# [1] = system: ER; test: ERE promoter-reporter assay, estradiol-stimulated, MCF-7 cells; format: cell-based, human; settings: transient expression in MCF-7 cells
# Experimental: (§1) Transfection was performed using a Fugene-6 kit (Roche Biochemical, New Jersey) as per the manufacturer's instructions. Cells were transiently cotransfected with a reporter construct and (β-galactosidase, and assayed for luciferase activity as described.
# Since MTA1 is a corepressor of ER (Mazumdar, et al., 2001, incorporated herein by reference), the ability of MTA1 cDNAs to repress the transactivating function of ER were investigated.
# [2] = system: ER; test: GST pull-down assay; format: binding; settings: in vitro translated protein, GST fusion
# Experimental: Incubating equal amounts of GST […] GST-AF2 or GST-AF 1 proteins immobilized to glutathione-sepharose beads with in vitro translated ^35S-labelled MTA1s, protein as described.
# Since MTA1s lacked the nuclear signal sequence, the subcellular localization and function of MTA1s was examined. […] The role of MTA1s, in breast cancer cells, was investigated by generating stable clones of ZR-75R cells expressing T7-MTA1s (FIG. 3B). Subcellular fractionation of the ZR-75R cells expressing MTA1s confirmed that T7-MTA1s was in the cytoplasm. To assess the purity of the fractions, immunoblotting with antibodies against the nuclear corepressor PELP1 (Vadlamudi, et al., 2000) and cytosolic paxillin (FIG. 3C) were used. To understand the impact of MTA1s on the status of ER, immunostaining with an anti-ER mAb were used on MCF-7 cells that were transfected with the T7-MTA1s. The expression of T7-MTA1s was accompanied by a significant reduction in the nuclear ER immunoreactivity (FIG. 3D), raising the possibility that MTA1s regulates ER. To confirm the interaction between the MTA1s and endogenous ER, immunoprecipitation of T7-MTA1s with an anti-T7 mAb was used. […] To investigate whether the association between MTA1s and ER was direct or mediated by other proteins, the ability of in vitro-translated ER protein to bind with GST-MTA1s was investigated. […]
# Target sequence in this assay (P03372 311-595 limits assumed): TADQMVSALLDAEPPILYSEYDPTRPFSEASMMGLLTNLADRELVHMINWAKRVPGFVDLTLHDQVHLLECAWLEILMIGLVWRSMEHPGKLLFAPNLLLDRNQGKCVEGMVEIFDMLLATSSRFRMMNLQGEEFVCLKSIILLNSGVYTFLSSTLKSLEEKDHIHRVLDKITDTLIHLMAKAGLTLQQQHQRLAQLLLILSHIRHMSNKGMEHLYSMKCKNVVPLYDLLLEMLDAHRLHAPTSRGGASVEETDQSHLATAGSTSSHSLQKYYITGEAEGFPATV
# [3] = system: breast cancer cells; test: Tumorigenesis (xenograft) assay in nude mice; format: in vivo; settings: MTA1s expressing cells implanted subcutaneously, 21 days
# Source text: (§2) FIGS. 11A-11E. MTA1s may stimulate aggressive phenotypes in breast cancer cells. FIG. 11A illustrates an example of MTA1s overexpression inhibiting PRE-driven but not RARE-driven transcription. FIG. […] illustrates the Growth-rate of ZR/pcDNA or ZR/MTA1s cells in monolayer culture in the presence of E2 alone or with ICI 182780 (10^−9 M for 4 days). FIG. 11C show an exemplary effect of MTA1s expression on anchorage independent growth of ZR/pcDNA and ZR/MTA1s cells grown in 10% serum in the presence or absence of ICI 182780 (10^−9 M) or 4HT (10^−8 M) for 14 days. […] FIG. 11E illustrates that MTA1s may induce tumorigenesis of breast cancer cells. 5×10^6 cells were subcutaneously inoculated in the athymic nude mice (n=10), and tumor volumes at day 21 were recorded.
# (§3) Soft agar colony growth assays were performed as described in Mazumdar et al., 2001, herein incorporated by reference. For xenografts studies, 5×10^6 cells were implanted subcutaneously into mammary fat-pad of nude mice and allowed to grow for 21 days and tumor size was measured, as described in Mandal et al., 2001, herein incorporated by reference.
# [4] = system: ZR-75R or MCF-7 cells; test: Soft-agar anchorage-independent growth assay; format: cell-based, human; settings: stable expression in ZR-75R or MCF-7 cells
# Source text: as §2, §3
# [5] = system: pS2, c-Myc and cathepsin-D; test: Expression of ER-target genes in ZR-75R cells; format: cell-based, human; settings: ZR-75R/MTA1s cells
# Experimental: FIGS. 5A-5F. MTA1s may impair genomic responses and upregulates the MAP kinase pathway in ZR75R breast cancer cells. […] FIG. 5B illustrates an example of the status of E2 (10^−9 M for 16 h)-induced stimulation of pS2 mRNA. […] Treatment, 5 min. with E2 (10^−9 M) or ICI 182780 (10^−8 M) or both. […] Treatment, 5 min with E2 (10^−9 M) or ICI 182780 (10^−8 M) or both. Relative levels of p42/44Phos are shown underneath.
# [6] = system: glucocortocoid responsive element (GRE) transcription; test: GRE reporter assay, dexamethasone-stimulated, MCF-7 cells; format: cell-based, human; settings: transient expression
# Experimental: (§4) FIGS. 6A-6B. Typical transcriptional repression by MTA1s. FIG. 6A illustrates an example of repression of dexamethasone (10^−9 M)-mediated stimulation of GRE-CAT activity in MCF-7 cells by MTA1s. FIG. 6B illustrates the exemplary repression of progesterone (10^−9 M)-mediated stimulation of PRE-luciferase activity in MCF-7 cells by MTA1s. Cells were cotransfected with β-galactosidase to assess transfection efficiency, and normalized results are presented here.
# as §1
# [7] = system: progesterone responsive element (PRE) transcription; test: PRE reporter assay, progesterone-stimulated, MCF-7 cells; format: cell-based, human; settings: transient expression
# Experimental: as §4, §1
# [8] = target: T1, ERα (Homo sapiens, UniProt P03372); test: Confocal localization of ERα in estradiol-stimulated MCF-7 cells; format: cell-based; settings: estradiol stimulated MCF-7 cells expressing the construct
# T1 construct: endogenous in cells; host or cells: MCF-7 cells transfected with T7-MTA1s or MTA1s-del
# Experimental: The cellular localization of T7-MTA1s, and ER was determined using indirect immunofluorescence as described in Mazumdar et al., 2001, herein incorporated by reference. Cells were treated with or without anti-T7 mAb or ER Ab followed by 546-Alexa-labeled goat anti-mouse Ab or 488-Alexa.
# Expression of MTA1s-del but not wild type MTA1s was accompanied by the presence of ERα in the nucleus in more than 90% of the cell expressing MTA1s-del. Together, these findings indicated a pivotal role of LRILL motif in the cytoplasmic sequestration of ERα.
# T1 sequence (P03372 whole entry): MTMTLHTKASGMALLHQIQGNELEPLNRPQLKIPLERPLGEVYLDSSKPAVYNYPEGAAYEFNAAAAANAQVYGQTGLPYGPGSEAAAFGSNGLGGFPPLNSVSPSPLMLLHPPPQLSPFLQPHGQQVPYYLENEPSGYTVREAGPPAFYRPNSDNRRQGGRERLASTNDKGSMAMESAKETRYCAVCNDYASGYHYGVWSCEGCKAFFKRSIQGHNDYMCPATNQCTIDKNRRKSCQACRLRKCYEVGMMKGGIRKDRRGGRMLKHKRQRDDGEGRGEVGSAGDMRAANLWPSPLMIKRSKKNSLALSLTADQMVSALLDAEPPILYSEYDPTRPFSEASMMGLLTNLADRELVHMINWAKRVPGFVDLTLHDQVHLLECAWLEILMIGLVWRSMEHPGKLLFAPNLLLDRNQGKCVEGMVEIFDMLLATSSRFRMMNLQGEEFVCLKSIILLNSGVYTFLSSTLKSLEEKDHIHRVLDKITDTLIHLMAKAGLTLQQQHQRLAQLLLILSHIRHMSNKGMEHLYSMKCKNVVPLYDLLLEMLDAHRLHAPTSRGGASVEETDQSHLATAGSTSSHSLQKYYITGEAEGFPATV
molecule,measurement,setting,value
MTA1s-stop: MTA1s mutant made by adding a stop codon and deleting the entire 33 amino acids (protein) MAANMYRVGDYVYFENSSSNPYLIRRIEELNKTANGNVEAKVVCFYRRRDISSTLIALADKHATLSVCYKAGPGADNGEEGEIEEEMENPEMVDLPEKLKHQLRHRELFLSRQLESLPATHIRGKCSVTLLNETESLKSYLEREDFFFYSLVYDPQQKTLLADKGEIRVGNRYQADITDLLKEGEEDGRDQSRLETQVWEAHNPLTDKQIDQFLVVARSVGTFARALDCSSSVRQPSLHMSAAAASRDITLFHAMDTLHKNIYDISKAISALVPQGGPVLCRDEMEEWSASEANLFEEALEKYGKDFTDIQQDFLPWKSLTSIIEYYYMWKTTDRYVQQKRLKAAEAESKLKQVYIPNYNKPNPNQISVNNVKAGVVNGTGAPGQSPGAGRACESCY,repression of estradiol's ability to stimulate ERE transcription,[1],did not result in a significant suppression
"full-length MTA1: 715 amino acid metastasis-associated protein, corepressor of nuclear Estrogen Receptor α (protein, UniProt Q13330 1-715, looked up, full-length, 715 amino acid metastasis-associated protein, corepressor of nuclear Estrogen Receptor α) MAANMYRVGDYVYFENSSSNPYLIRRIEELNKTANGNVEAKVVCFYRRRDISSTLIALADKHATLSVCYKAGPGADNGEEGEIEEEMENPEMVDLPEKLKHQLRHRELFLSRQLESLPATHIRGKCSVTLLNETESLKSYLEREDFFFYSLVYDPQQKTLLADKGEIRVGNRYQADITDLLKEGEEDGRDQSRLETQVWEAHNPLTDKQIDQFLVVARSVGTFARALDCSSSVRQPSLHMSAAAASRDITLFHAMDTLHKNIYDISKAISALVPQGGPVLCRDEMEEWSASEANLFEEALEKYGKDFTDIQQDFLPWKSLTSIIEYYYMWKTTDRYVQQKRLKAAEAESKLKQVYIPNYNKPNPNQISVNNVKAGVVNGTGAPGQSPGAGRACESCYTTQSYQWYSWGPPNMQCRLCASCWTYWKKYGGLKMPTRLDGERPGPNRSNMSPHGLPARSSGSPKFAMKTRQAFYLHTTKLTRIARRLCREILRPWHAARHPYLPINSAAIKAECTARLPEASQSPLVLKQAVRKPLEAVLRYLETHPRPPKPDPVKSVSSVLSSLTPAKVAPVINNGSPTILGKRSYEQHNGVDGNMKKRLLMPSRGLANHGQARHMGPSRNLLLNGKSYPTKVRLIRGGSLPPVKRRRMNWIDAPDDVFYMATEETRKIRKLLSSSETKRAARRPYKPIALRQSQALPPRPPPPAPVNDEPIVIED",repression of estradiol's ability to stimulate ERE transcription,[1],effectively blocked
"MTA1s: novel 430 amino acid protein from an alternatively spliced MTA1 transcript, with unique 33 amino acid C-terminus (SEQ ID NO:2) (protein, listed as Homo sapiens) MAANMYRVGDYVYFENSSSNPYLIRRIEELNKTANGNVEAKVVCFYRRRDISSTLIALADKHATLSVCYKAGPGADNGEEGEIEEEMENPEMVDLPEKLKHQLRHRELFLSRQLESLPATHIRGKCSVTLLNETESLKSYLEREDFFFYSLVYDPQQKTLLADKGEIRVGNRYQADITDLLKEGEEDGRDQSRLETQVWEAHNPLTDKQIDQFLVVARSVGTFARALDCSSSVRQPSLHMSAAAASRDITLFHAMDTLHKNIYDISKAISALVPQGGPVLCRDEMEEWSASEANLFEEALEKYGKDFTDIQQDFLPWKSLTSIIEYYYMWKTTDRYVQQKRLKAAEAESKLKQVYIPNYNKPNPNQISVNNVKAGVVNGTGAPGQSPGAGRACESCYMSSLRILLDILEEIWWLENANPVRWREARTKPQ",repression of estradiol's ability to stimulate ERE transcription,[1],effectively blocked
same,binding to ER in GST pull-down,[2],interacted with the GST-ER but not with GST alone
same,tumorigenicity in nude mice,[3],more tumorigenic
same,anchorage-independent growth in soft agar,[4],significantly enhanced
same,"expression of ER-target genes pS2, c-Myc and cathepsin-D",[5],significantly reduced expression
same,repression of GRE transcription stimulated by dexamethasone,[6],blocked the stimulation
same,repression of PRE transcription stimulated by progesterone,[7],blocked the stimulation
MTA1s-del: MTA1s mutant made by deleting the LRILL motif (protein) MAANMYRVGDYVYFENSSSNPYLIRRIEELNKTANGNVEAKVVCFYRRRDISSTLIALADKHATLSVCYKAGPGADNGEEGEIEEEMENPEMVDLPEKLKHQLRHRELFLSRQLESLPATHIRGKCSVTLLNETESLKSYLEREDFFFYSLVYDPQQKTLLADKGEIRVGNRYQADITDLLKEGEEDGRDQSRLETQVWEAHNPLTDKQIDQFLVVARSVGTFARALDCSSSVRQPSLHMSAAAASRDITLFHAMDTLHKNIYDISKAISALVPQGGPVLCRDEMEEWSASEANLFEEALEKYGKDFTDIQQDFLPWKSLTSIIEYYYMWKTTDRYVQQKRLKAAEAESKLKQVYIPNYNKPNPNQISVNNVKAGVVNGTGAPGQSPGAGRACESCYMSSDILEEIWWLENANPVRWREARTKPQ,repression of estradiol's ability to stimulate ERE transcription,[1],did not result in a significant suppression
same,cells with ERα present in the nucleus,[8],more than 90%
